{"source": "paper PMC7306444", "assay_in_all_cases": "fluorescence anisotropy", "key": {"NT-hFMRP": {"target": "NT-hFMRP (Homo sapiens, UniProt Q06787 218-632)"}, "GST-hFMRP RGG": {"target": "GST-hFMRP RGG (Homo sapiens, UniProt Q06787 531-632)"}, "GST-hFMRP KH0": {"target": "GST-hFMRP KH0 (Homo sapiens, UniProt Q06787 126-201)"}, "GST-hFMRP KH2": {"target": "GST-hFMRP KH2 (Homo sapiens, UniProt Q06787 281-425)"}, "GST-hFMRP KH1-KH2": {"target": "GST-hFMRP KH1-KH2 (Homo sapiens, UniProt Q06787 216-425)"}, "GST-hFMRP KH0-KH1-KH2": {"target": "GST-hFMRP KH0-KH1-KH2 (Homo sapiens, UniProt Q06787 126-425)"}, "GST-hFMRP KH1": {"target": "GST-hFMRP KH1 (Homo sapiens, UniProt Q06787 216-280)"}, "NT-hFMRP ΔKH1": {"target": "NT-hFMRP ΔKH1 (Homo sapiens, UniProt Q06787 281-632)"}}, "data": [{"binder": "UGGACUUGGACUUGGACU (ssRNA, m6A at position 10)", "note": "[UGGm6ACU]", "values": [{"measurement": "Kd", "setting": "NT-hFMRP", "result": "1250 ± 610", "unit": "nM"}]}, {"binder": "UGACGGACGGACGGACGU (structured_RNA)", "note": "[(GACG)4]", "values": [{"measurement": "binding result", "setting": "NT-hFMRP", "result": "no binding"}, {"measurement": "binding result", "setting": "GST-hFMRP RGG", "result": "no binding"}, {"measurement": "binding result", "setting": "GST-hFMRP KH0", "result": "no binding"}, {"measurement": "binding result", "setting": "GST-hFMRP KH2", "result": "no binding"}, {"measurement": "binding result", "setting": "GST-hFMRP KH1-KH2", "result": "no binding"}, {"measurement": "binding result", "setting": "GST-hFMRP KH0-KH1-KH2", "result": "no binding"}, {"measurement": "binding result", "setting": "GST-hFMRP KH1", "result": "no binding"}]}, {"binder": "GGGGGGGGGGGGGGGGGU (structured_RNA)", "note": "[PolyG17]", "values": [{"measurement": "Kd", "setting": "NT-hFMRP", "result": "14 ± 2", "unit": "nM"}, {"measurement": "Kd", "setting": "NT-hFMRP ΔKH1", "result": "17 ± 3", "unit": "nM"}, {"measurement": "Kd", "setting": "GST-hFMRP RGG", "result": "8.6 ± 1.2", "unit": "nM"}]}, {"binder": "UGGGGU (structured_RNA)", "note": "[UG4U]", "values": [{"measurement": "Kd", "setting": "NT-hFMRP", "result": "110 ± 16", "unit": "nM"}, {"measurement": "Kd", "setting": "NT-hFMRP ΔKH1", "result": "80 ± 7", "unit": "nM"}, {"measurement": "Kd", "setting": "GST-hFMRP RGG", "result": "210 ± 18", "unit": "nM"}]}, {"binder": "CCCCCCCUGGACCCCCCU (ssRNA)", "note": "[UGGA]", "values": [{"measurement": "binding result", "setting": "NT-hFMRP", "result": "no binding"}]}, {"binder": "UUGGAUGGAUGGAUGGAU (structured_RNA)", "note": "[(UGGA)4]", "values": [{"measurement": "Kd", "setting": "NT-hFMRP", "result": "710 ± 50", "unit": "nM"}, {"measurement": "Kd", "setting": "NT-hFMRP ΔKH1", "result": "840 ± 39", "unit": "nM"}, {"measurement": "binding result", "setting": "GST-hFMRP KH0", "result": "no binding"}, {"measurement": "binding result", "setting": "GST-hFMRP KH2", "result": "no binding"}, {"measurement": "binding result", "setting": "GST-hFMRP KH1-KH2", "result": "no binding"}, {"measurement": "binding result", "setting": "GST-hFMRP KH0-KH1-KH2", "result": "no binding"}, {"measurement": "binding result", "setting": "GST-hFMRP KH1", "result": "no binding"}]}, {"binder": "CCCCCCCACUUCCCCCCU (ssRNA)", "note": "[ACUU]", "values": [{"measurement": "binding result", "setting": "NT-hFMRP", "result": "no binding"}]}]}
